# Patent publication US10464978B2, “Peptides and combination of peptides for use in immunotherapy against ovarian cancer and other cancers” (immatics biotechnologies GmbH, priority 2015, dated 2019)
# Target: HLA-A*02:01 (Homo sapiens, UniProt P04439, D140Y/D185E/D98H/E176V/E277Q/G131W/G231S/I119V/I121R/I166T/I218V/L300P/L318F/N151K/N90K/P208A/P217A/Q86G/Q94H/R138H/R169H/T345S)
# Experiment: MHC binding assay: UV-ligand exchange with beta2m ELISA (peptide exchange yield)
# Conditions: binding to HLA-A*02:01
# Summary of the method: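 Values give exchange yield, measured by β2m ELISA: 100-fold-diluted monomers bound to streptavidin plates (1h, 37° C), probed with HRP anti-β2m at 2 ug/ml and read at 450 nm after TMB. Monomers came from UV-triggered cleavage of a photolabile peptide and exchange for the test peptide.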
row,"Peptide exchange (MHC class I binding score, peptide exchange yield)",Substance
1,“++” (≥20% = ++),499 (KIFDIDEAEEGV; listed as Homo sapiens) [compound 499]
2,“+++” (≥50 = +++),500 (SLMEDQVLQL; listed as Homo sapiens) [compound 500]
3,“+++” (≥50 = +++),501 (LLDPNVKSIFV; listed as Homo sapiens) [compound 501]
4,“+++” (≥50 = +++),502 (RLLAQVPGL; listed as Homo sapiens) [compound 502]
5,“+++” (≥50 = +++),503 (SLNHFTHSV; listed as Homo sapiens) [compound 503]
6,“++” (≥20% = ++),504 (GLSDGNPSL; listed as Homo sapiens) [compound 504]
7,“++” (≥20% = ++),505 (SLAPGDVVRQV; listed as Homo sapiens) [compound 505]
8,“+++” (≥50 = +++),506 (KLLGKVETA; listed as Homo sapiens) [compound 506]
9,“+++” (≥50 = +++),507 (KLIDDQDISISL; listed as Homo sapiens) [compound 507]
10,“+++” (≥50 = +++),508 (ILAQEQLVVGV; listed as Homo sapiens) [compound 508]
11,“+++” (≥50 = +++),509 (FLFDTKPLIV; listed as Homo sapiens) [compound 509]
12,“++” (≥20% = ++),510 (KLYSVVSQL; listed as Homo sapiens) [compound 510]

# More lines, now with the values behind:
row,Substance,"Peptide exchange (MHC class I binding score, peptide exchange yield)"
1,484 (SLIEKVTQL; listed as Homo sapiens) [compound 484],“+++” (≥50 = +++)
2,485 (NVPDSFNEV; listed as Homo sapiens) [compound 485],“+++” (≥50 = +++)
3,486 (AVMESIQGV; listed as Homo sapiens) [compound 486],“+++” (≥50 = +++)
4,487 (LLINSVFHV; listed as Homo sapiens) [compound 487],“+++” (≥50 = +++)
5,488 (FLAEDPKVTL; listed as Homo sapiens) [compound 488],“+++” (≥50 = +++)
6,489 (KMWEELPEVV; listed as Homo sapiens) [compound 489],“+++” (≥50 = +++)
7,490 (FLLQHVQEL; listed as Homo sapiens) [compound 490],“+++” (≥50 = +++)
8,491 (GLNDRSDAV; listed as Homo sapiens) [compound 491],“++” (≥20% = ++)
9,492 (SLFDGFADGLGV; listed as Homo sapiens) [compound 492],“+++” (≥50 = +++)
10,493 (GLLGEKTQDLIGV; listed as Homo sapiens) [compound 493],“+++” (≥50 = +++)
11,494 (ALQPEPIKV; listed as Homo sapiens) [compound 494],“++” (≥20% = ++)
12,495 (FIFSEKPVFV; listed as Homo sapiens) [compound 495],“+++” (≥50 = +++)
13,496 (FLVEKQPPQV; listed as Homo sapiens) [compound 496],“+++” (≥50 = +++)
14,497 (GLLEKLTAI; listed as Homo sapiens) [compound 497],“+++” (≥50 = +++)
15,498 (KLWTGGLDNTV; listed as Homo sapiens) [compound 498],“+++” (≥50 = +++)
